From US20200087400A1 (EUREKA THERAPEUTICS, published 2020)

Key:
Test in all cases: phage ELISA, streptavidin plate, anti-M13-HRP
[1] = target: T1, Bio-P19 member A2E-11 (chain 2: C-terminal BirA substrate peptide (BSP), enzymatically biotinylated; its letters are not printed in the patent and it is left out)
T1 construct: also called biotinylated control peptide A2E-11/HLA-A*02:01 monomer
Summary of the method: (§1)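 ELISA: clones incubated on streptavidin-captured biotinylated peptide/HLA-A*02:01 complex, detected by HRP-conjugated anti-M13 with absorbance at 450 nm. FACS: T2 cells, unloaded or peptide-loaded with β2M, stained sequentially on ice (30–60 min per step) with scFv phage, anti-M13 and R-PE anti-mouse IgG.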

[2] = target: T2, Bio-P19 member A2E-13 (chain 2: C-terminal BirA substrate peptide (BSP), enzymatically biotinylated; its letters are not printed in the patent and it is left out)
T2 construct: also called biotinylated control peptide A2E-13/HLA-A*02:01 monomer
T2 sequence (b2m, as listed by the source): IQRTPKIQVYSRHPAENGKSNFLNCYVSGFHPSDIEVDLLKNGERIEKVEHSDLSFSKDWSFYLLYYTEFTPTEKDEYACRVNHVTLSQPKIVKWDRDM
Summary of the method: as §1

[3] = target: T3, Bio-P19 member A2E-15 (chain 2: C-terminal BirA substrate peptide (BSP), enzymatically biotinylated; its letters are not printed in the patent and it is left out)
T3 construct: also called biotinylated control peptide A2E-15/HLA-A*02:01 monomer
T3 sequence (b2m, as listed by the source): as above
Summary of the method: as §1

[4] = target: T4, Bio-P19 member A2E-16 (chain 2: C-terminal BirA substrate peptide (BSP), enzymatically biotinylated; its letters are not printed in the patent and it is left out)
T4 construct: also called biotinylated control peptide A2E-16/HLA-A*02:01 monomer
T4 sequence (b2m, as listed by the source): as above
Summary of the method: as §1

[5] = target: T5, Bio-P19 member A2E-17 (chain 2: C-terminal BirA substrate peptide (BSP), enzymatically biotinylated; its letters are not printed in the patent and it is left out)
T5 construct: also called biotinylated control peptide A2E-17/HLA-A*02:01 monomer
T5 sequence (b2m, as listed by the source): as above
Summary of the method: as §1

[6] = target: T6, Bio-P19 member A2E-19 (chain 2 carries a C-terminal BirA substrate peptide (BSP), enzymatically biotinylated; the BSP letters are not given in the patent and are left out)
T6 construct: also called biotinylated control peptide A2E-19/HLA-A*02:01 monomer
T6 sequence (beta, as listed by the source): as the sequence (b2m, as listed by the source) above
Summary of the method: as §1

[7] = target: T7, Bio-P19 member A2E-21 (chain 2 carries a C-terminal BirA substrate peptide (BSP), enzymatically biotinylated; the BSP letters are not given in the patent and are left out)
T7 construct: also called biotinylated control peptide A2E-21/HLA-A*02:01 monomer
T7 sequence (beta, as listed by the source): as the sequence (b2m, as listed by the source) above
Summary of the method: as §1

[8] = target: T8, Bio-P19 member A2E-23 (chain 2 carries a C-terminal BirA substrate peptide (BSP), enzymatically biotinylated; the BSP letters are not given in the patent and are left out)
T8 construct: also called biotinylated control peptide A2E-23/HLA-A*02:01 monomer
T8 sequence (beta, as listed by the source): as the sequence (b2m, as listed by the source) above
Summary of the method: as §1

[9] = target: T9, Bio-P19 member A2E-2 (chain 2 carries a C-terminal BirA substrate peptide (BSP), enzymatically biotinylated; the BSP letters are not given in the patent and are left out)
T9 construct: also called biotinylated control peptide A2E-2/HLA-A*02:01 monomer
T9 sequence (beta, as listed by the source): as the sequence (b2m, as listed by the source) above
Summary of the method: as §1

[10] = target: T10, Bio-P19 member A2E-3 (chain 2 carries a C-terminal BirA substrate peptide (BSP), enzymatically biotinylated; the BSP letters are not given in the patent and are left out)
T10 construct: also called biotinylated control peptide A2E-3/HLA-A*02:01 monomer
T10 sequence (beta, as listed by the source): as the sequence (b2m, as listed by the source) above
Summary of the method: as §1

[11] = target: T11, Bio-P19 member A2E-4 (chain 2 carries a C-terminal BirA substrate peptide (BSP), enzymatically biotinylated; the BSP letters are not given in the patent and are left out)
T11 construct: also called biotinylated control peptide A2E-4/HLA-A*02:01 monomer
T11 sequence (beta, as listed by the source): as the sequence (b2m, as listed by the source) above
Summary of the method: as §1

[12] = target: T12, Bio-P19 member A2E-5 (chain 2 carries a C-terminal BirA substrate peptide (BSP), enzymatically biotinylated; the BSP letters are not given in the patent and are left out)
T12 construct: also called biotinylated control peptide A2E-5/HLA-A*02:01 monomer
T12 sequence (beta, as listed by the source): as the sequence (b2m, as listed by the source) above
Summary of the method: as §1

[13] = target: T13, Bio-P19 member A2E-6 (chain 2 carries a C-terminal BirA substrate peptide (BSP), enzymatically biotinylated; the BSP letters are not given in the patent and are left out)
T13 construct: also called biotinylated control peptide A2E-6/HLA-A*02:01 monomer
T13 sequence (beta, as listed by the source): as the sequence (b2m, as listed by the source) above
Summary of the method: as §1

[14] = target: T14, Bio-P19 member A2E-7 (chain 2 (heavy): C-terminal BirA substrate peptide, biotinylated there by BirA; tag letters not given, left out)
T14 construct: also called biotinylated control peptide A2E-7/HLA-A*02:01 monomer; not shown: BirA substrate peptide (BSP) tag at the C-terminus of the heavy chain
T14 sequence (b2m, as listed by the source): as above
Summary of the method: as §1

[15] = target: T15, Bio-P19 member A2E-8 (chain 2 (heavy): C-terminal BirA substrate peptide, biotinylated there by BirA; tag letters not given, left out)
T15 construct: also called biotinylated control peptide A2E-8/HLA-A*02:01 monomer; not shown: BirA substrate peptide (BSP) tag at the C-terminus of the heavy chain
T15 sequence (b2m, as listed by the source): as above
Summary of the method: as §1

[16] = target: T16, Bio-P19 member A2E-9 (chain 2 (heavy): C-terminal BirA substrate peptide, biotinylated there by BirA; tag letters not given, left out)
T16 construct: also called biotinylated control peptide A2E-9/HLA-A*02:01 monomer; not shown: BirA substrate peptide (BSP) tag at the C-terminus of the heavy chain
T16 sequence (b2m, as listed by the source): as above
Summary of the method: as §1

Measured: binding result

T1 sequence (b2m, as listed by the source): as above

B1: PSA146/HLA-A*02:01-specific scFv phage clone #2 (scFv, V domains shown)
VH: EVQLVQSGAEVKRPGSSVKVSCKASGGTFSSYAINWVRRAPGQGLEWMGKIIPIPGITNYAQKFQDRVTFTADTSTNIAYMELSSLRSEDTAMYYCARSYKWGSSLVDAWGQGTLVTVSS
VL: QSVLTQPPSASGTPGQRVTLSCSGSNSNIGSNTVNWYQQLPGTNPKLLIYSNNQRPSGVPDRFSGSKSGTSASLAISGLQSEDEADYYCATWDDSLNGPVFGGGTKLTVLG
no binding: [1] | [2] | [3] | [4] | [5] | [6] | [7] | [8] | [9] | [10] | [11] | [12] | [13] | [14] | [15] | [16]

B2: PSA146/HLA-A*02:01-specific scFv phage clone #3 (scFv, V domains shown)
VH: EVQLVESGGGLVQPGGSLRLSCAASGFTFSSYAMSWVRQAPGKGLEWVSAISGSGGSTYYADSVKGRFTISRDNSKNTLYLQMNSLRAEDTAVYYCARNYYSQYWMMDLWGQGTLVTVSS
VL: QSVLTQPPSVSGAPGQRVTISCTGSSSNFGAGYDVHWYQQLPGAAPKLLIYGDTNRPSGVPDRFSGSKSGTSASLAITGLQAEDEADYYCQSYDTSLSGSVFGGGTKLTVLG
no binding: [1] | [2] | [3] | [4] | [5] | [6] | [7] | [8] | [9] | [10] | [11] | [12] | [13] | [14] | [15] | [16]

B3: PSA146/HLA-A*02:01-specific scFv phage clone #5 (scFv, V domains shown)
VH: QVQLVQSGAEVKKPGDSVKVSCKPSGYNFLNYGINWVRQAPGQGLEWMGWISTYTGNTNYAQKLQGRVTFTTDTSTSTAYMEMRSLRSDDTAVYYCARSSEYYTWDHWGQGTLVTVSS
VL: QSVLTQPPSVSGAPGQRVTISCTGSSSNIGAGYDVHWYQQLPGTAPKLLIYGNSNRPSGVPDRFSGSKSGTSASLAITGLQAEDEADYYCQSYDSSLSGWVFGGGTKLTVLG
no binding: [1] | [2] | [3] | [4] | [5] | [6] | [7] | [8] | [9] | [10] | [11] | [12] | [13] | [14] | [15] | [16]

B4: PSA146/HLA-A*02:01-specific scFv phage clone #17 (scFv, V domains shown)
VH: QMQLVQSGAEVKKPGESLKISCKGSGYSFTSYWIGWVRQMPGKGLEWMGIIYPGDSDTRYSPSFQGQVTISADKSISTAYLQWSSLKASDTAMYYCARLVVPDAFDIWGQGTMVTVSS
VL: QSVVTQPPSVSAAPGQKVTISCSGSSSNIGNNYVSWYQQLPGTAPKLLIYDNYKRPSGIPDRFSGSKSGTSATLGITGLQTGDEADYYCGTWDSSLSAGVFGGGTKLTVLG
no binding: [1] | [2] | [3] | [4] | [5] | [6] | [7] | [11] | [12] | [13] | [14] | [15] | [16]

B5: PSA146/HLA-A*02:01-specific scFv phage clone #6 (scFv, V domains shown)
VH: EVQLVQSGAEVKKPGASVKVSCKASGYTFTGYYIHWVRQAPGQGLEWMGGFDPEDGETIYAQKFQDRVTMTADTSTDTAYMELSSLRSEDTAVYYCARYGFDYWGQGTLVTVSS
VL: QAVVTQEPSLTVSPGGTVTLTCASSTGAVTSGYYPNWFQLKPGQAPRALIYTTGKKHSWAPARFSGSLLGGKAALTLSGVQPEDEAEYYCLLYSGGVWVFGGGTKLTVLG
no binding: [1] | [2] | [3] | [4] | [5] | [6] | [7] | [8] | [9] | [10] | [11] | [12] | [13] | [14] | [15] | [16]
